Measurements from paper PMC12000561.

Assays:
Assay in all cases: EMSA
Conditions in all cases: EMSA: DNA mix 40 mM Tris pH 7.6, 2 mM EDTA, 200 mM NaCl (printed '200 M'), 20% glycerol, 0.2 mg/ml BSA, 2 mM DTT, 20 pM duplex, mixed 1:1 with enzyme in 20 mM …
[1] = test system: MUTYH V246F (MBP fusion) (Homo sapiens)
[2] = test system: MUTYH R241Q (MBP fusion) (Homo sapiens)
[3] = test system: MUTYH R309C (MBP fusion) (Homo sapiens)
[4] = test system: MUTYH N238S (MBP fusion) (Homo sapiens)
[5] = upper limit estimate, THF (abasic analog) opposite 8-oxoguanine
[6] = THF (abasic analog) opposite 8-oxoguanine
[7] = table unit header missing, 2'-fluoro-2'-deoxyadenosine opposite 8-oxoguanine

Substance | Kd [1, 5] [pM] | Kd [2, 6] [pM] | Kd [3, 5] [pM] | Kd [4, 6] [pM] | Kd [1, 7] [pM] | Kd [2, 7] [pM] | Kd [3, 7] [pM] | Kd [4, 7] [pM]
Duplex 2 THF:OG (product analog), 30 bp | < 10 | 467 | < 10 | 46 |  |  |  | 
Duplex 2 fA:OG (substrate analog), 30 bp |  |  |  |  | 50 | 629 | 246 | 124
